Measured values taken from patent publication US10407503B2, “Fully human antibodies and fragments recognizing human c-Met” (THE REGENTS OF THE UNIVERSITY OF CALIFORNIA, priority 2012, dated 2019).

Assays:
[1] = molecular target: T1, c-MET on the surface of Hcc827 or Hcc827-GR6 cells (human, UniProt P08581 25-1390); experiment: phage flow cytometry on Hcc827-GR6 cells, bound phage detected with FITC anti-M13 antibody
T1 construct: whole, on cells; The cells express the receptor endogenously, and MET is amplified in Hcc827-GR6; also called cell surface MET
T1 sequence (P08581 25-1390): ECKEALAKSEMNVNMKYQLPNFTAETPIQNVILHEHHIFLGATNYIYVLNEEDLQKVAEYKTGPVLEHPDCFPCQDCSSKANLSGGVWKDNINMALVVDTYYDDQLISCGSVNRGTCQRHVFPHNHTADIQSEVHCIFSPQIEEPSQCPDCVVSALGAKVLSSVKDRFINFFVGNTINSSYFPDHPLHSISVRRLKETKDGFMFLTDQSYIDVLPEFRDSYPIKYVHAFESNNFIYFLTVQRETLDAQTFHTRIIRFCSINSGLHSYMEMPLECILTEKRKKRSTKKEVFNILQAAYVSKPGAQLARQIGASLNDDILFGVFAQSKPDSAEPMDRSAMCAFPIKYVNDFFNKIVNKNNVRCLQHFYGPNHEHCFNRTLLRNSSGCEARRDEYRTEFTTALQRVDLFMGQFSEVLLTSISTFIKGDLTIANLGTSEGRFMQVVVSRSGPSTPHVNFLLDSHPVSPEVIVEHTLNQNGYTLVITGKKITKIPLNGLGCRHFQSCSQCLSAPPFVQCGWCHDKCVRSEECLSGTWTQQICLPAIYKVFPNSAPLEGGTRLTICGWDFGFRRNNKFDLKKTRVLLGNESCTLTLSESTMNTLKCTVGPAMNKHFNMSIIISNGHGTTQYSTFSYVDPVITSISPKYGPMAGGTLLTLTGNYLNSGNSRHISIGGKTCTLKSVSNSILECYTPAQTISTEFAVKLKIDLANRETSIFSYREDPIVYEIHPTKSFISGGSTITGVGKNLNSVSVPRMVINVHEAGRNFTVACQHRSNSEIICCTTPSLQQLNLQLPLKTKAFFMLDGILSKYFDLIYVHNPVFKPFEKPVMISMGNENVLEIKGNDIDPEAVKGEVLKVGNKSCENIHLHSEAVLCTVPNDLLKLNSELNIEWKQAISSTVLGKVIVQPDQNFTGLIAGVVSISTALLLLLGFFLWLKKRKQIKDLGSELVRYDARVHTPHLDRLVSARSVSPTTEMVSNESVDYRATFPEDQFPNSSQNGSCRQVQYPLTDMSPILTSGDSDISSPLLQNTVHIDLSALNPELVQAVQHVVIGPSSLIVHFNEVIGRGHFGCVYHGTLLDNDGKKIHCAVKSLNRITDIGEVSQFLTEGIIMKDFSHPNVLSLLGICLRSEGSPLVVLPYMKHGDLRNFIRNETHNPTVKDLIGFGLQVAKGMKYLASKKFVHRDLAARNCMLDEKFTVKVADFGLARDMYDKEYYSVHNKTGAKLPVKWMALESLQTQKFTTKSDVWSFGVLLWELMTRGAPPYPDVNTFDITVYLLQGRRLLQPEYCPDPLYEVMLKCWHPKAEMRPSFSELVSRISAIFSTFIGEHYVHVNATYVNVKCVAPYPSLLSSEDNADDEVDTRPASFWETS
Protocol: (§1) For phage antibodies, flow cytometry was used to confirm their binding to c-MET expressing cells. Bacteria culture containing phage was concentrated 30 times into PBS according to published method (Antibody Engineering Methods and Protocols, Benny K. C. Lo). $2 \sim 5 \times 10^5$ c-MET positive Hcc827 or Hcc827-GR6 cells (Engelman et. al, Science, 2007) were incubated with 100 ul concentrated phage and 30 ul 4% milk-PBS on ice for 1 hour. Cells were then washed using flow buffer (PBS, 1% FBS, 2 mM EDTA), and the binding phage antibodies were detected by FITC conjugated anti-M13 monoclonal antibody (Santa Cruz Biotechnology, Cat# sc-53005 Fitc).

[2] = molecular target: T2, cell surface MET (Homo sapiens, UniProt P08581); experiment: Phage flow cytometry for binding to c-MET expressing cells; conditions: phage antibodies; Hcc827 or Hcc827-GR6 cells; FITC anti-M13 detection
T2 construct: endogenous in cells; host or cells: Hcc827 or Hcc827-GR6
T2 sequence (P08581 25-1390): as above
Protocol: as §1, with “2˜5×105” for “$2 \sim 5 \times 10^5$”
93 clones were randomly picked after 3 rounds of panning. The phage-containing supernatant was used for phage ELISA. Top 64 clones with highest A405 signal were sequenced, among which 19 distinctive clones with different sequences were identified. These distinctive clones were then tested for binding to cell surface MET by phage flow experiments. 8 of these clones show good binding to cell surface MET and were selected for the subsequent purification and characterizations.

B1: E9 ScFv antibody (phage-displayed) (scFv)
scFv: QVQLQESGGGVVQPGRSLRLSCAASGFTFSSYGMHWVRQAPGKGLEWVSAIGSSGGSTHDADTVKGRFTISRDNAKNSLYLQMNSLRAEDTAVYYCARDRARGFDYWGQGTLVTVSSGGGGGSGGGGSGGGGSEIVLTQSPSTLSASIGDRVTITCRASQGISSYLAWYQQKPGKAPKLLIYGASSLQSGVPSRFSGRGSGADFTLTISSLQPEDFATYYCQQLISYPLTFGGGTKVEIKR
notes: The fusion to the phage coat protein is not described
- binding result [1]: binds

B2: E9 ScFv antibody: human anti-c-Met ScFv comprising SEQ ID NO:27; tested as phage-displayed clone (protein)
scFv: B1 scFv
modifications: phage-displayed; synthetic E9 ScFv sequence
- binding to cell surface MET [2]: can bind to cell surface MET

B3: F1 ScFv antibody: human anti-c-Met ScFv comprising SEQ ID NO:28; tested as phage-displayed clone (protein)
scFv: QVQLVQSGAEVKKPGASVKVSCKASGYTFTDYYMHWVRQAPGEGLEWMGWMNPNSGGTNYAQKFQGRVTMTRDTSISTAYMELSRLRSDDTAVYYCARSHYWDSWSPGTLVTVSSGGGGGSGGGGSGGGGSSALTQPASVSGSPGQSITISCTGTSGDVGGYNYVSWYQQHPGKAPKLMIYDVSNRPSGVSNRFSGSKSGNTASLTISGLQAEDEADYYCTSYAGSRNLVFGGGTKLTVLG
modifications: phage-displayed; synthetic F1 ScFv sequence
- binding to cell surface MET [2]: can bind to cell surface MET

B4: H5 ScFv antibody (phage-displayed) (scFv)
scFv: QVQLQESGGGLVQPGGSLRLSCAASGFTFSNYAMSWVRQAPGKGLEWVSAISGSGGSTYYADSVKGRFTISRDNSKNTLYLQMNSLRAEDTAVYYCAKDRFRAAAYWGQGTLVTVSSGGGGGSGGGGSGGGGSQSVLTQPPSVSAAPGQKVTISCTGSSSNIGAGYDVHWYQQLPGTAPKLLIYGNSNRPSGVPDRFSGSKSGTSASLAISGLQSEDEADYYCAAWDDILNGEIFGGGTKVTVLG
notes: as for B1
- binding result [1]: binds

B5: H5 ScFv antibody: human anti-c-Met ScFv comprising SEQ ID NO:32; tested as phage-displayed clone (protein)
scFv: B4 scFv
modifications: phage-displayed; synthetic H5 ScFv sequence
- binding to cell surface MET [2]: can bind to cell surface MET

B6: F11 ScFv antibody (phage-displayed) (scFv)
scFv: QVQLQESGGGLLQPGGSLRLSCAASRFTFSNYAMSWVRQAPGKGLEWVSAISGSGASTYYADSVKGRFTISRDNSKNTLYLQMNSLRAEDTAVYYCSNLYGDYDYWGQGTLVTVSSGGGGGSGGGGSGGGGSQSVLTQPASVSGSPGQSITISCTGTSSDVGGYNYVSWYQQHPGKAPKLMIYDVSNRPSGVSNRFSGSKSGNTASLTISGLQAEDEADYYCSSYTSSSTLLFGGGTKLTVLG
notes: as for B1
- binding result [1]: binds

B7: F11 ScFv antibody: human anti-c-Met ScFv comprising SEQ ID NO:29; tested as phage-displayed clone (protein)
scFv: B6 scFv
modifications: phage-displayed; synthetic F11 ScFv sequence
- binding to cell surface MET [2]: can bind to cell surface MET

B8: C2 ScFv antibody (phage-displayed) (scFv)
scFv: QVQLQESGGGLVQPGGSLRLSCAASGFTFSSYAMSWVRQAPGKGLEWVSAISGSGGSTYYADSVKGRFTISRDNSKNTLYLQMNSLRAEDTAVYYCASQHVGEQSRYFDYWGQGTLVTVSSGGGGGSGGGGSGGGGSDIVMTQSPSSLSASIGDRVTITCRASHSISSYVNWYQKKPGKAPNLLIYAASYLPRGVPSRFSGSGLGTDFTLTISNLQPEDFATYYCQESYSTPYSFGQGTKVDIKR
notes: as for B1
- binding result [1]: binds

B9: C2 ScFv antibody: human anti-c-Met ScFv comprising SEQ ID NO:26; tested as phage-displayed clone (protein)
scFv: B8 scFv
modifications: phage-displayed; synthetic C2 ScFv sequence
- binding to cell surface MET [2]: can bind to cell surface MET

B10: G1 ScFv antibody (phage-displayed) (scFv)
scFv: QVQLQESGGGVVQPGGSLRLSCAASGFTFSSYSMNWVRQAPGKGLEWVSSISSSSSYIYYADSVKGRFTISRDNAKNSLYLQMNSLRAEDTAVYYCARDLPSDDYGDYDYYYYGMDVWGQGTTVTVSSGGGGGSGGGGSGGGGSQSVLTQPPSASGTPGQRVTLFCSGSSSNIASNSVKWYQQPPQRAPKLLMFSDDQRPSGVPVRFSASKSGTSASLAISGLQSEDEADYYCAAWDDSLNAEVFGGGTKVTVLG
notes: as for B1
- binding result [1]: binds

B11: G1 ScFv antibody: human anti-c-Met ScFv comprising SEQ ID NO:30; tested as phage-displayed clone (protein)
scFv: B10 scFv
modifications: phage-displayed; synthetic G1 ScFv sequence
- binding to cell surface MET [2]: can bind to cell surface MET
